Residue numbers refer to the chain shown, from its start.
T1: hFcgRIIaH (human, UniProt P12318 34-217)
T1 construct: extracellular domain; also called human FcγRIIa type H (H131)
T1 sequence (looked up): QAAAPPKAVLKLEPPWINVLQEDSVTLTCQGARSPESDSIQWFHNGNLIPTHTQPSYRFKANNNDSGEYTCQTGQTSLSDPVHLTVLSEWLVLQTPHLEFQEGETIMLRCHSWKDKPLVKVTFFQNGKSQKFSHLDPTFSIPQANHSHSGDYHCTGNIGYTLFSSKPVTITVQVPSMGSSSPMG

T2: hFcgRIIaR (human, UniProt P12318 34-217)
T2 construct: extracellular domain; also called human FcγRIIa type R (R131)
T2 sequence (looked up): T1 sequence (looked up) with H134R

T3: hFcgRIIb (human, UniProt P31994 43-217)
T3 construct: extracellular domain; also called human FcγRIIb
T3 sequence (looked up): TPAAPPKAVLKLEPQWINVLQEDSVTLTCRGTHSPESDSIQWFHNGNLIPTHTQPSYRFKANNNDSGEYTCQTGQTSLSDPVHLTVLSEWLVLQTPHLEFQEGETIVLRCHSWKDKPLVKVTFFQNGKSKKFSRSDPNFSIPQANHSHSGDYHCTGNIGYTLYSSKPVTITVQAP

B1: A375-SCF030/B167-Lamlib (antibody, human IgG1, lambda)
heavy: EVQLVESGGGLVKPGGSLRLSCAASGFTFSTFTMNWVRQAPGKGLEWVSSISSKSTYIEYADSFKVRFTISRDNAKNSLYLQMNSLRAEDTAVYYCARYGAKNFLNWVFDYWGQGTLVTVSSASTKGPSVFPLAPSSKSTSGGTAALGCLVKDYFPEPVTVSWNSGALTSGVHTFPAVLQSSGLYSLSSVVTVPSSSLGTQTYICNVNHKPSNTKVDKKVEPKSCDKTHTCPPCPAPELWNGPSVFLFPPKPKDTLMISRTPEVTCVVVDVSDEDPEVKFNWYVDGVEVHNAKTKPREELYNSTYRVVSVLTVLHRDWLNGKEYKCKVSNTALPKPIEKTISKAKGQRREPQVYTLPPSREEMTKNQVSLTCLVKGFYPSDIAVEWESNGQPENNYKTTPPVLDSDGSFFLYSKLTVDKSRWQQGNVFSCSVMHEALHNHYTQKSLSLSP
light: QSALTQPPSASGSPGQTVTISCTGTRYDVGYYEYVSWYQQHPGKAPKLMIYETSKRLSGVPDRFSGSKSGNTASLTVSGLQAEDEADYYCSSYRYEHQVSFGGGTKLTVLGQPKAAPSVTLFPPSSEELQANKATLVCLISDFYPGAVTVAWKADSSPVKAGVETTTPSKQSNNKYAASSYLSLTPEQWKSHRSYSCQVTHEGSTVEKTVAPTECS
B2: A375-SCF032/B167-Lamlib (antibody, human IgG1, lambda)
heavy: B1 heavy with L239Y, W240L, N241G, P243D, T255V, V269I, D273H, L300Q, T312P, T331K
light: B1 light
B3: A375-SCF033/B167-Lamlib (antibody, human IgG1, lambda)
heavy: B1 heavy with L239Y, W240L, N241G, G242D, P243D, T255V, D273H, L300Q, T312P, T331K
light: B1 light
B4: A375-SCF039/B167-Lamlib (antibody, human IgG1, lambda)
heavy: B1 heavy with R316Q
light: B1 light
B5: A375-SCF039a/B167-Lamlib (antibody, human IgG1, lambda)
heavy: B1 heavy with K219R, R316Q
light: B1 light
B6: A375-SCF040/B167-Lamlib (antibody, human IgG1, lambda)
heavy: B1 heavy with R316Q, R348P, D418K
light: B1 light
notes: copies: 2 + 2
B7: A375-SCF041a/B167-Lamlib (antibody, human IgG1, lambda)
heavy: B1 heavy with K219R, W240L, L300Q, R316Q, T331K
light: B1 light
B8: A375-SCF041aPh/B167-Lamlib (antibody, human IgG1, lambda)
heavy: B1 heavy with K219R, L300Q, R316Q, T331K
light: B1 light
B9: A375-SCF042a/B167-Lamlib (antibody, human IgG1, lambda)
heavy: B1 heavy with K219R, W240L, L300Q, R316Q, T331K, R348P, D418K
light: B1 light
notes: copies: 2 + 2
B10: A375-SCF043a/B167-Lamlib (antibody, human IgG1, lambda)
heavy: B1 heavy with K219R, W240L, L300Q, R316Q, T331K, D418K
light: B1 light

target: T4, hFcgRIa (human, UniProt P12314 16-292); assay: SPR 25C
T4 construct: extracellular domain; also called human FcγRIa; FcγRI
T4 sequence (P12314 16-292): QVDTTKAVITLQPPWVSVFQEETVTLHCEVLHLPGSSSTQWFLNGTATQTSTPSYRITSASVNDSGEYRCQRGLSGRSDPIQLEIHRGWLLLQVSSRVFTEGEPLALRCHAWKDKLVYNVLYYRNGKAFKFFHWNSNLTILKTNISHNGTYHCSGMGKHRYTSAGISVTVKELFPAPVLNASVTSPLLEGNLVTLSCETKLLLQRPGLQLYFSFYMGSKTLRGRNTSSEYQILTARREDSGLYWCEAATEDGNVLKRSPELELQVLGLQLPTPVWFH
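Throughout, for binding per 1RU of antibody: biacore SPR with antibody captured on an anti-human Fab lambda chip, human FcγR injected at 1000 nM (FcγRIa at 8 nM) in pH 7.4 phosphate buffer.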
Experimental: (§1) Biacore T200 (GE Healthcare) was used to evaluate the binding activity to the respective human Fcγ receptor (hereafter referred to as FcγR). Measurement was performed at 25° C. using 50 mM phosphate, 150 mM NaCl, 0.05 w/v %-P20, pH 7.4 as buffer. About 1000 RU of antibody was captured using a sensor chip immobilized with CaptureSelect™ Human Fab-lambda Kinetics Biotin Conjugate (Thermo Fisher Scientific) as a molecule for ligand capturing. Human FcγR was diluted to 8 nM for FcγRIa and 1000 nM for other FcγR in the measurement buffer, and it was interacted to the captured antibody. The binding activity of each antibody to FcγR was assessed by calculating the binding amount of FcγR (RU) per unit amount of antibody using Biacore T200 Evaluation Software 2.0.

| Binder | binding per 1RU of antibody [RU] |
| --- | --- |
| B1 | 0.002 |
| B2 | 0.0049 |
| B3 | 0.0033 |
| B4 | 0.0018 |
| B5 | 0.0018 |
| B6 | 0.0016 |
| B7 | 0.0446 |
| B8 | 0.0013 |
| B9 | 0.0396 |
| B10 | 0.0429 |

target: T1, hFcgRIIaH; assay: SPR 25C
Experimental: as §1

| Binder | binding per 1RU of antibody [RU] |
| --- | --- |
| B1 | 0.0533 |
| B2 | 0.003 |
| B3 | 0.0103 |
| B4 | 0.0535 |
| B5 | 0.0542 |
| B6 | 0.0454 |
| B7 | 0.0571 |
| B8 | 0.0371 |
| B9 | 0.0522 |
| B10 | 0.0552 |

target: T2, hFcgRIIaR; assay: SPR 25C
Experimental: as §1

| Binder | binding per 1RU of antibody [RU] |
| --- | --- |
| B1 | 0.0532 |
| B2 | -0.0004 |
| B3 | 0.0255 |
| B4 | 0.0542 |
| B5 | 0.0554 |
| B6 | 0.0446 |
| B7 | 0.0376 |
| B8 | 0.0371 |
| B9 | 0.0327 |
| B10 | 0.0361 |

target: T3, hFcgRIIb; assay: SPR 25C
Experimental: as §1

| Binder | binding per 1RU of antibody [RU] |
| --- | --- |
| B1 | 0.0532 |
| B2 | 0.0782 |
| B3 | 0.0979 |
| B4 | 0.0531 |
| B5 | 0.054 |
| B6 | 0.0465 |
| B7 | 0.0433 |
| B8 | 0.035 |
| B9 | 0.0393 |
| B10 | 0.0419 |

target: T5, hFcgRIIIaF (human, UniProt P08637 17-208); assay: SPR 25C
T5 construct: extracellular domain; also called human FcγRIIIa allotype F158
T5 sequence (P08637 17-208): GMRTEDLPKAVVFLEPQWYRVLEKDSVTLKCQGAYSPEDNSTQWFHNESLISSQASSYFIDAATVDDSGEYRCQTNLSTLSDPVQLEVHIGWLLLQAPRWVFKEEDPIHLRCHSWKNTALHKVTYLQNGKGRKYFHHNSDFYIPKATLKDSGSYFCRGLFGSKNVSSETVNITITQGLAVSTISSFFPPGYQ
Experimental: as §1

| Binder | binding per 1RU of antibody [RU] |
| --- | --- |
| B1 | 0.0017 |
| B2 | -0.0007 |
| B3 | 0 |
| B4 | 0.0008 |
| B5 | 0.0012 |
| B6 | 0.001 |
| B7 | 0.0009 |
| B8 | 0.0007 |
| B9 | 0.0003 |
| B10 | 0.0011 |

target: T6, hFcgRIIIaV (human, UniProt P08637 17-208); assay: SPR 25C
T6 construct: extracellular domain; also called human FcγRIIIa allotype V158
T6 sequence (P08637 17-208 F176V): as the sequence (P08637 17-208) above, with F160V counted along it
Experimental: as §1

| Binder | binding per 1RU of antibody [RU] |
| --- | --- |
| B1 | 0.002 |
| B2 | -0.0007 |
| B3 | 0.0002 |
| B4 | 0.0013 |
| B5 | 0.0013 |
| B6 | 0.0013 |
| B7 | 0.0022 |
| B8 | 0.0005 |
| B9 | 0.0014 |
| B10 | 0.0025 |

target: human FcRn (human, UniProt P55899 24-290; P61769 21-119, limits assumed); assay: SPR 25C pH 6.0, steady state;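 note: antibody captured on chip via anti-human Fab-lambda ligand, human FcRn injected as analyte in 50 mM phosphate buffer with 150 mM NaCl and P20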
Sequence (P55899 24-290 limits assumed, chain 1 of 2): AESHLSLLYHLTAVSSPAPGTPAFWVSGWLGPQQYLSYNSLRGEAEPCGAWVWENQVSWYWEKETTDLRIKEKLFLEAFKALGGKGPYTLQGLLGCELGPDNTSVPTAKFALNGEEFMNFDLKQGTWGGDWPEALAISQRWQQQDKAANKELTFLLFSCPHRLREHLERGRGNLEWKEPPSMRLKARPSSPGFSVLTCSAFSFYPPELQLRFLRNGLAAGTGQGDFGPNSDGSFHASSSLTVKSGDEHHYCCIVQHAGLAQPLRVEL
Sequence (P61769 21-119 limits assumed, chain 2 of 2): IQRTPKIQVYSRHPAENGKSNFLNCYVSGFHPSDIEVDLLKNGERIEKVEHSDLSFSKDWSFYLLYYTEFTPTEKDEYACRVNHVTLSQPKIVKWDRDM
Experimental: Biacore T200 (GE Healthcare) was used to assess the binding activity to human FcRn. Measurement was performed at 25° C. using 50 mM phosphate, 150 mM NaCl, 0.05 w/v %-P20, pH 6.0 as buffer. […] About 400 RU of antibody was captured using a sensor chip immobilized with CaptureSelect™ Human Fab-lambda Kinetics Biotin Conjugate (Thermo Fisher Scientific) as a molecule for ligand capturing, followed by the binding of human FcRn diluted in measuring buffer. The activity of the respective antibodies to bind FcRn was assessed by calculating KD (mol/L) by the steady-state model using Biacore T200 Evaluation Software 2.0.

| Binder | Kd [µM] |
| --- | --- |
| B1 | 0.863 |
| B2 | 0.966 |
| B3 | 0.874 |
| B4 | 1.09 |
| B5 | 1.11 |
| B6 | 1.46 |
| B7 | 1.1 |
| B8 | 1.13 |
| B9 | 1.49 |
| B10 | 1.18 |

target: T4, hFcgRIa; assay: SPR 25C; relative to A375-G1T3/B167-Lamlib;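 note: SPR with antibody captured on an anti-human Fab-lambda chip, human FcγR analyte at 8 nM for FcγRIa or 1000 nM for the others, pH 7.4, FcγR RU per captured antibody unit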
Experimental: as §1

| Binder | relative binding amount |
| --- | --- |
| B1 | 0.02 |
| B2 | 0.06 |
| B3 | 0.04 |
| B4 | 0.02 |
| B5 | 0.02 |
| B6 | 0.02 |
| B7 | 0.55 |
| B8 | 0.02 |
| B9 | 0.49 |
| B10 | 0.53 |

target: T1, hFcgRIIaH; assay: SPR 25C; relative to A375-G1T3/B167-Lamlib;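 note: SPR with antibody captured on an anti-human Fab-lambda chip, human FcγR analyte at 8 nM for FcγRIa or 1000 nM for the others, pH 7.4, FcγR RU per captured antibody unit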
Experimental: as §1

| Binder | relative binding amount |
| --- | --- |
| B1 | 0.94 |
| B2 | 0.05 |
| B3 | 0.18 |
| B4 | 0.94 |
| B5 | 0.96 |
| B6 | 0.8 |
| B7 | 1.01 |
| B8 | 0.65 |
| B9 | 0.92 |
| B10 | 0.97 |

target: T2, hFcgRIIaR; assay: SPR 25C; relative to A375-G1T3/B167-Lamlib;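 note: SPR with antibody captured on an anti-human Fab-lambda chip, human FcγR analyte at 8 nM for FcγRIa or 1000 nM for the others, pH 7.4, FcγR RU per captured antibody unit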
Experimental: as §1

| Binder | relative binding amount |
| --- | --- |
| B1 | 1.15 |
| B2 | -0.01 |
| B3 | 0.55 |
| B4 | 1.17 |
| B5 | 1.2 |
| B6 | 0.96 |
| B7 | 0.81 |
| B8 | 0.8 |
| B9 | 0.71 |
| B10 | 0.78 |

target: T3, hFcgRIIb; assay: SPR 25C; relative to A375-G1T3/B167-Lamlib;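 note: SPR with antibody captured on an anti-human Fab-lambda chip, human FcγR analyte at 8 nM for FcγRIa or 1000 nM for the others, pH 7.4, FcγR RU per captured antibody unit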
Experimental: as §1

| Binder | relative binding amount |
| --- | --- |
| B1 | 4.85 |
| B2 | 7.14 |
| B3 | 8.94 |
| B4 | 4.85 |
| B5 | 4.93 |
| B6 | 4.24 |
| B7 | 3.95 |
| B8 | 3.2 |
| B9 | 3.59 |
| B10 | 3.82 |

target: T5, hFcgRIIIaF; assay: SPR 25C; relative to A375-G1T3/B167-Lamlib
Experimental: as §1

| Binder | relative binding amount |
| --- | --- |
| B1 | 0.08 |
| B2 | -0.03 |
| B3 | 0 |
| B4 | 0.04 |
| B5 | 0.06 |
| B6 | 0.05 |
| B7 | 0.04 |
| B8 | 0.03 |
| B9 | 0.01 |
| B10 | 0.05 |

target: T6, hFcgRIIIaV; assay: SPR 25C; relative to A375-G1T3/B167-Lamlib
Experimental: as §1

| Binder | relative binding amount |
| --- | --- |
| B1 | 0.03 |
| B2 | -0.01 |
| B3 | 0 |
| B4 | 0.02 |
| B5 | 0.02 |
| B6 | 0.02 |
| B7 | 0.03 |
| B8 | 0.01 |
| B9 | 0.02 |
| B10 | 0.04 |
